Laboratory results taken from patent US12533399B2, “Composition comprising tTF-NGR for use in treating soft-tissue sarcoma” (ANTUREC PHARMACEUTICALS GMBH, priority 2020, dated 2026).

Legend:
[1] = system: HUVEC; test: PS upregulation on HUVEC cell membranes, flow cytometry with annexin V-FITC; type: cell-based, human
Experimental: FIG. 4: illustration of the synergistic activity of tTF-NGR and Trabectedin in human vascular endothelial cells (HUVEC). […] PS is detected by the fluorescent PS-binding annexin V-FITC.
This effect is specifically dependent on the presence of PS as it can be completely abolished by masking PS via preincubation with annexin V.

[2] = system: HT1080 human sarcoma cells; test: PS upregulation on HT1080 sarcoma cells; type: cell-based; conditions: Trabectedin 10 nM, 8 h; 6 experiments; p=0.001 vs non-Trabectedin control
Experimental: FIG. 5: illustration of the synergistic activity of tTF-NGR and Trabectedin in HT1080 human sarcoma cells. […] Means+standard error (p value=0.001). Propidiumiodide was used as an internal necrosis control. […] Means of 4 experiments+standard error and p-values.
As in tumor tissues part of the inner vascular cell layer of the neovasculature is not formed by endothelial cells, but also by tumor cells, which is termed “vascular mimicry”, analog experiments were also performed with HT1080 human sarcoma cells instead of HUVECs (see FIG. 5).

[3] = system: tumor; test: Intravascular contrast enhanced MRI of the tumor after tTF-NGR (FIG. 3); type: in vivo; conditions: few hours after tTF-NGR application
From the text: FIG. 3: illustration of the therapeutic activity and modes of action of tTF-NGR by different imaging techniques. 1. Bluish coloration of the tumor (A, left: tTF-NGR. A, right: vehicle control) few hours after injection of tTF-NGR macroscopically visualizing blood pooling and vascular disruption. 2. Intravascular contrast enhanced Magnetic Resonance Imaging (MRI) of the tumor showing anatomy of the tumors (A, B) and drastic decrease of blood flow from high blood flow (C) to low (D) few hours after tTF-NGR application. The vascular volume fraction was quantified to decrease>1 log. 3. H&E staining of sarcoma xenograft tissue (A, thrombosis, blood pooling and vascular disruption after tTF-NGR; B, saline control with normal vasculature). 4. In vivo fluorescence reflectance imaging showing the vascular anatomy by intravascular fluorescent fibrin after tTF-NGR (B). A, before tTF-NGR; B, 1 hour after tTF-NGR; C, vascular disruption 24 hours after tTF-NGR.

[4] = Toxicity evaluation according to EU-guidelines S6 and S9; type: in vivo; conditions: most sensitive species (mouse)
From the text: tTF-NGR was produced using E. coli via a clinical-grade production process and a 4-step HPLC purification. The production process and the GMP facility are approved by the regional government (Manufacturer's Authorisation by Regierungspräsidium) and the federal Paul Ehrlich-Institute (PEI). Toxicity evaluation according to EU-guidelines S6 and S9 in mouse, rat, guinea pigs, and dogs has been completed.

[5] = system: late stage solid tumor and lymphoma patients; test: Clinical phase I study of tTF-NGR: DLT, safety, response; type: in vivo, human
Experimental: (§1) A clinical phase I trial was performed (EudraCT-No.: 2016-003042-85; NCT02902237) with tTF-NGR applied as 1-hour infusion solved in 0.9% NaCl via a central venous line in late stage cancer patients. This trial was a first-in-class trial, which was guided by repeated contrast-enhanced ultrasound (CEUS) and MRI to assess for blood flow decrease in tumor signal lesions. A “5-day q day 22” schedule was used in the study design.
This sensitive laboratory DLT was fast reversible and allows early monitoring for subsequent dose adjustment in future trials. […] Thus, the trial was completed with a recommended dose for phase II (RPIID) at 3 mg/m^2/day×5, q d 22. The investigational medicinal product (IMP) is given via a PORT central venous access in 100 mL 0.9% NaCl over a rate-controlled infusion with a 1-hour duration.
(§2) The tumor blood flow inhibition was up to >1-log-step. […] In none of the patients treated so far a CR or a PR could be observed.

[6] = Clinical phase I study of tTF-NGR: pharmacokinetics; type: in vivo, human; conditions: patients
Experimental: as §1

[7] = system: tumor blood flow (intratumoral blood circulation); test: Clinical phase I study of tTF-NGR: tumor blood flow by CEUS and MRI; type: in vivo, human; conditions: patients
Experimental: as §1, §2

[8] = target: T1, CD13 (Homo sapiens, UniProt P15144); test: Binding of tTF-NGR to its target on growing endothelial cells; type: cell-based
T1 construct: endogenous in cells; host or cells: growing / stimulated endothelial cells (EC)
Experimental: (§3) These fusion proteins were tested in vitro and in vivo for essential therapeutic properties, such as pro-coagulatory activity, specific binding to their respective target molecules on stimulated endothelial cells (EC) or pericytes, in vivo intratumoral accumulation, in vivo intratumoral activation of coagulation, tumor vascular occlusion and inhibition of blood flow, pharmacodynamic properties including therapeutic antitumor activity in xenotransplants of human tumors from different histologic origin, and finally rodent as well as non-rodent animal safety and toxicology. […] Preclinical therapeutic activity of tTF-NGR was independent of tumor histology (e.g. melanoma, lung, breast, sarcoma, glioblastoma).

[9] = system: xenotransplants of human tumors; test: Preclinical therapeutic activity in xenotransplants of human tumors; type: in vivo
Experimental: as §3

T1 sequence (P15144 whole entry): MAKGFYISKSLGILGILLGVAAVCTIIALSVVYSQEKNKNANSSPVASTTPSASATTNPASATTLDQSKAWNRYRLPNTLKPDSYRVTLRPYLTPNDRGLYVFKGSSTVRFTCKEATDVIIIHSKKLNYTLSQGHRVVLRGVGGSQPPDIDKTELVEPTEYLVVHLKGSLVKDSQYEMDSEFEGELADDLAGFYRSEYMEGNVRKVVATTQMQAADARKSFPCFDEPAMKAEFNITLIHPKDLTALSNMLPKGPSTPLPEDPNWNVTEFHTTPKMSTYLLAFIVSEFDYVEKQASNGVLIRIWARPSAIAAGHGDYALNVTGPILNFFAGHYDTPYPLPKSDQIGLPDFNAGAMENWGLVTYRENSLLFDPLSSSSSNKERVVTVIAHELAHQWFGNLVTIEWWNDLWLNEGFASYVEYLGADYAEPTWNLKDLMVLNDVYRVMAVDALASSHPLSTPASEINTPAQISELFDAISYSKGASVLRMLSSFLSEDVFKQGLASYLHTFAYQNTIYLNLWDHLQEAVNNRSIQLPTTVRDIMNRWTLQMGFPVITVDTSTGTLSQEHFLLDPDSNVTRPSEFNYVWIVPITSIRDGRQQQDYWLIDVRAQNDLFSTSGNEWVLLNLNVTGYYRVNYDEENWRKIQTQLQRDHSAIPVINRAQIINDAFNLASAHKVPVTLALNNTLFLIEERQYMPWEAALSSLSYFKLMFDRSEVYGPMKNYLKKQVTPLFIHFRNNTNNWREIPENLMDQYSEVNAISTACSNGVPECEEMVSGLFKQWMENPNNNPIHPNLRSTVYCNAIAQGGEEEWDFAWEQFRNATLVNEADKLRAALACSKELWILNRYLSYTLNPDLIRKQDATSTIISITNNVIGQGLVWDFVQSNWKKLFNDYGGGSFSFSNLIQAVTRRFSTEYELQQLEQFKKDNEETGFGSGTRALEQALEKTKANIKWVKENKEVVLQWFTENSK

Molecule: COc1cc2c(cc1O)CCN[C@]21CS[C@@H]2c3c(OC(C)=O)c(C)c4c(c3[C@H](COC1=O)N1[C@@H]2[C@H]2c3c(cc(C)c(OC)c3O)C[C@@H]([C@@H]1O)N2C)OCO4 [Trabectedin]
- PS-positive cells (lower right quadrant) ([1]; Trabectedin 15 nM, 8 h incubation, 7.21% without Trabectedin, one example experiment): 29.22%
- PS upregulation on HUVECs ([1]; increasing doses, after 8 and 12 h, 7 experiments, P<0.0001 vs non-Trabectedin control): PS upregulation
- PS upregulation on HT1080 sarcoma cells [2]: significant PS upregulation

B1: tTF-NGR: fusion protein of truncated tissue factor (tTF) with C-terminal NGR targeting peptide binding CD13 and N-terminal His-tag, SEQ ID NO: 2 (protein)
chain: MHHHHHHSSGLVPRGSGMKETAAAKFERQHMDSPDLGTDDDDKAMGSGTTNTVAAYNLTWKSTNFKTILEWEPKPVNQVYTVQISTKSGDWKSKCFYTTDTECDLTDEIVKDVKQTYLARVFSYPAGNVESTGSAGEPLYENSPEFTPYLETNLGQPTIQSFEQVGTKVNVTVEDERTLVRRNNTFLSLRDVFGKDLIYTLYYWKSSSSGKKTAKTNTNEFLIDVDKGENYCFSVQAVIPSRTVNRKSTDSPVECMGQEKGEFRGNGRAHA
modifications: His-tTF-NGR fusion protein
- decrease of vascular volume fraction [3]: > 1 log
- limiting toxicity [4]: pulmonary embolism
- adverse event ([5]; at 3 mg/m^2, CTCAE II resolved, patient with angiosarcoma in left atrium): transient ischemic attack
- kind of dose-limiting toxicity ([5]; at 4 mg/m^2/day, fast reversible, no clinical sequelae): temporary troponin T hs showed increase
- adverse event ([5]; at 4 mg/m^2, CTCAE grade II and resolved): central venous catheter-related venous thrombosis
- adverse event ([5]; at 5 mg/m^2, 1 patient, completely resolved): CTCAE grade II lower limb deep vein thrombosis
- dose limiting toxicity (DLT) dose ([5]; daily 1-hour iv infusions for 5 days, q day 22): 5 mg/m^2 per day
- patients with CR or PR ([5]; patients treated so far): none
- human anti-fusion protein antibodies (HAFA) ([5]; without clinical symptoms or neutralizing capacity): detected in few patients
- recommended dose for phase II (RPIID) ([5]; x5, q d 22): 3 mg/m^2/day
- accumulation with repeated cycles [6]: no accumulation
- mean terminal half life ([6]; 1-hour iv infusion): 8.99 h
- blood flow in normal organs [7]: without blood flow decrease in normal organs
- tumor blood flow inhibition ([7]; up to): > 1 log-step
- binding to CD13 on growing EC [8]: specifically binds to CD13
- effect on tumor growth ([9]; independent of tumor histology (melanoma, lung, breast, sarcoma, glioblastoma)): tumor growth inhibition and regression
- resistance development ([9]; repeated rounds of treatment): no resistance development
